{"source": "patent US20260029420A1", "about": "“ANTI-CB2 ANTIBODIES AND THEIR USE IN A FLOW CYTOMETRY ASSAY TO MEASURE CELL SURFACE CB2 EXPRESSION” (Hoffmann-La Roche Inc., priority 2022, published 2026)", "type_in_all_cases": "binding", "key": {"[1]": {"system": "CHODukx negative", "assay": "Immunofluorescence on methanol-fixed cells, negative control", "design": "key to immunofluorescence signal intensity: “−” no fluorescence detected; “+”-“++++” intensity of fluorescent signal; “+”-“++++” intensity of fluorescent signal; “+”-“++++” intensity of fluorescent signal; “+”-“++++” intensity of fluorescent signal", "protocol": "(§1) The positive clones (Table 1) were further characterized by immunofluorescence (IF; Table 2), Western Blot (Table 3, 1) and Immune precipitation (Table 4, 2) on full length hCB2, hCB1, mCB2 stable-transfected CHO-cell lines in addition to the 2 pANITA constructs.\nFor IF analysis, methanol-fixed cells were incubated for 20 min in a humid chamber at 37° C. with the respective hCB2 and mCB2 clones. After rinsing twice and washing for 15 min in PBS, 125 μg/ml FITC-conjugated […] anti-mouse IgG antibodies (RAM/IgG (H+L)/FITC, Nordic\nImmunological Laboratories) diluted in PBS was added and incubated for 20 min in a humid chamber at 37° C. Cells were rinsed twice and washed for 15 min in PBS, mounted with mounting solution (50% PBS 50% glycerol) and covered with a coverslip. Staining was assessed by fluorescence microscopy on a Leica CTR500 fluorescence microscope and a Leica DFC300 FX digital camera."}, "[2]": {"biological_target": "T1, CHO-A2 mCB2 (Mus musculus, UniProt P47936)", "T1 construct": "expressed in transfected cells", "T1 sequence (P47936 whole entry)": "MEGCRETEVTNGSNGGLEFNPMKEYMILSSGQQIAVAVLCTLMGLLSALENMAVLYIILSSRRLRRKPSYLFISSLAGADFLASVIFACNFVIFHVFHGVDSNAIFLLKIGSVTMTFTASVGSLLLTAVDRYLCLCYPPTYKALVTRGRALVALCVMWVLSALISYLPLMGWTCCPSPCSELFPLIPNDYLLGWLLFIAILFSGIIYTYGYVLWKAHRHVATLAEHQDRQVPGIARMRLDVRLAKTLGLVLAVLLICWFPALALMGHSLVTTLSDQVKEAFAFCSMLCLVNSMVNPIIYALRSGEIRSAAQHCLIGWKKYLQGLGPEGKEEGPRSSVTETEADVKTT", "assay": "Western blot of cell lysates", "design": "key: “−” no signal; “+”-“+++++” signal intensity; “+”-“+++++” signal intensity; “+”-“+++++” signal intensity; “+”-“+++++” signal intensity; “+”-“+++++” signal intensity", "conditions": "CHO-A2 mCB2 lysate", "protocol": "as §1\n(§2) For Western blot analysis, cells were collected using enzyme free dissociation buffer (Cell dissociation buffer enzyme-free Hanks'-based, Gibco), and washed two times with PBS. To prepare cell lysate, 10^6 cells were lysed with 0.1 ml of lysis buffer (1% NP40, 10% glycerol, 2 mM EDTA, 137 mM NaCl, 20 mM TrisHCl, pH8, Protease Inhibitors) for 10 min on ice. The lysate was cleared by centrifugation at 20′000 g for 5 min. For SDS-PAGE cell lysate was resolved on precast 4-12% gradient gels (NuPAGE® Novex 4-12% Bis-Tris Gel, Invitrogen) with MES running buffer according to the manufacturer's directions. The separation of proteins was visualized by Colloidal Blue staining. The proteins were electrophoretically transferred to nitrocellulose membrane using a dry-blotting system (iBlot, Invitrogen). After blocking the membrane for 16 h in blocking buffer (5% Milk in PBS) at 4° C., specific proteins were detected with appropriate dilutions of mAbs in blocking buffer for 1 h at approximately 20° C. […]"}, "[3]": {"biological_target": "T2, CHODukx CRE hCB2 Cl.90 (Homo sapiens, UniProt P34972)", "T2 construct": "expressed in transfected cells", "T2 sequence (P34972 whole entry)": "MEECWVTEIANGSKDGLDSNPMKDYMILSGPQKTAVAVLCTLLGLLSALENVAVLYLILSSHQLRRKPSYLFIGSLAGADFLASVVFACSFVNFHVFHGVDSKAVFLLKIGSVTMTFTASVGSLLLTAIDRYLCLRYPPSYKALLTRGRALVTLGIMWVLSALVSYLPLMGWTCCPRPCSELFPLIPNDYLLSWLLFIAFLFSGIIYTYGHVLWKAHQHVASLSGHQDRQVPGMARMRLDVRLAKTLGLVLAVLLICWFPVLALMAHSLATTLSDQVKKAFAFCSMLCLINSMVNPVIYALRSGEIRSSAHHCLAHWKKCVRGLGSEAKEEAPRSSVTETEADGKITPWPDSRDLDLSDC", "assay": "Western blot of cell lysates", "design": "key: “−” no signal; “+”-“+++++” signal intensity; “+”-“+++++” signal intensity; “+”-“+++++” signal intensity; “+”-“+++++” signal intensity; “+”-“+++++” signal intensity", "conditions": "CHODukx CRE hCB2 Cl.90 lysate", "protocol": "as §1, §2"}, "[4]": {"biological_target": "T3, CHO K1 h CB2 cell line (Homo sapiens, UniProt P34972)", "T3 construct": "expressed in transfected cells; host or cells: CHO K1", "T3 sequence (P34972 whole entry)": "as above", "assay": "Flow cytometry with increasing antibody levels on CHO K1 cells", "conditions": "0.1, 1 or 10 μg/ml antibody; CHO K1 hCB2", "description": "(§3) FIG. 3: Analysis of the specificity of the anti hCB2 antibody 1/622 for hCB2. Flow cytometric analysis with increasing concentrations of hCB2 antibody 1/622 in CHO cells transfected with hCB2 (light brick) and hCB1 (dark brick). Untransfected CHO cells (black) serve as a negative control. For detection an F(ab)2 goat-anti Mouse IgG3 PE antibody was used.\n(§4) Further evidence for the specificity of the anti-human CB2 antibody 1/622 was generated by flow cytometry experiments using increasing levels of the antibody on untransfected, hCB1 or hCB2 transfected CHO K1.\n(§5) The cells were washed 1× with 1× DPBS without CaCl2 and MgCl2 (Gibco, #14190-094). Accutase (Sigma, #A6964) was added and the cell were placed back in the incubator. Once the cells had detached, they were collected in a Falcon tube containing DMEM high glucose+GlutaMAX (Gibco, #31966-021) and 10% heat inactivated FBS (Gibco, #16140-071). Cells were centrifuged for 5 minutes at 250×g and 4° C. and the cell pellet was resuspended in cell staining buffer (BioLegend, #420201) and put them on ice until further usage. The cells were incubated with 0.1, 1 or 10 μg/ml hCB2-1/622 antibody and incubated for 30 minutes at 4° C. After the incubation, the tubes were centrifuged for 5 minutes with 250×g and 4° C. The supernatant was removed completely, cells were washed two times with cold cell staining buffer and supernatant removed completely after the centrifugation. Human FcR Blocking Reagent (Miltenyi Biotech, Cat #130-059-901) was diluted according to the package insert instructions with cold cell staining buffer. To each sample 50 μl was added, mixed and incubated for 10 minutes at 4° C. The secondary antibody Goat F(ab′)2 Anti-Mouse IgG3 PE (Southern Biotech, Cat #1102-09) was diluted 1:25 in cold cell staining buffer. To each sample 50 μl was added, mixed and incubated for 30 minutes at 4° C. in the dark. After the incubation cells were washed 2× with cold cell staining buffer and supernatant removed completely after centrifugation. […]"}, "[5]": {"biological_target": "T4, CHO K1 hCB1R (Homo sapiens, UniProt P21554)", "T4 construct": "expressed in transfected cells; host or cells: CHO K1", "T4 sequence (P21554 whole entry)": "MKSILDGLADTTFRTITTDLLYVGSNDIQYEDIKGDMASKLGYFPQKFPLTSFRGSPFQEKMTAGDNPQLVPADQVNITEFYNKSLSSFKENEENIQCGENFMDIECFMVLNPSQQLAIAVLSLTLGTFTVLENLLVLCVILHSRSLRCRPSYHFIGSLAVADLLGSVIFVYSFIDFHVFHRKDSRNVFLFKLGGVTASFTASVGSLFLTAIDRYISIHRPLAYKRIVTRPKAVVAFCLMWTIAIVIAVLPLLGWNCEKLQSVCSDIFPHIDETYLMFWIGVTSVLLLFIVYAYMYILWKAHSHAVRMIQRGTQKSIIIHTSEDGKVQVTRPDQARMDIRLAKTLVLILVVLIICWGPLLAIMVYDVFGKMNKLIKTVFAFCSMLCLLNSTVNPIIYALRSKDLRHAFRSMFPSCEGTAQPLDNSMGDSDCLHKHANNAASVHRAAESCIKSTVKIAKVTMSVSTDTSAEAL", "assay": "Flow cytometry with increasing antibody levels on CHO K1 cells", "conditions": "0.1, 1 or 10 μg/ml antibody", "description": "as §3, §4, §5"}, "[6]": {"system": "untransfected CHO K1 controls", "assay": "Flow cytometry with increasing antibody levels on CHO K1 cells", "conditions": "0.1, 1 or 10 μg/ml antibody", "description": "as §3, §4, §5"}}}
{"molecule": "hCB2-1/622: murine IgG3 monoclonal anti-human CB2 antibody, VH SEQ ID NO: 1, VL SEQ ID NO: 2, HC SEQ ID NO: 3, LC SEQ ID NO: 4 (antibody) heavy: EVQLQQSGPELVKPGASVKISCKTSGYTFTEYTMHWVRQSHGKSLEWIGGIDRYNGDTYYNQKFKDKATLTVDRSSSTAYMELRSLTSEDSAVYFCARNGAMDYWGQGISVTVSSATTTAPSVYPLVPGCSDTSGSSVTLGCLVKGYFPEPVTVKWNYGALSSGVRTVSSVLQSGFYSLSSLVTVPSSTWPSQTVICNVAHPASKTELIKRIEPRIPKPSTPPGSSCPPGNILGGPSVFIFPPKPKDALMISLTPKVTCVVVDVSEDDPDVHVSWFVDNKEVHTAWTQPREAQYNSTFRVVSALPIQHQDWMRGKEFKCKVNNKALPAPIERTISKPKGRAQTPQVYTIPPPREQMSKKKVSLTCLVTNFFSEAISVEWERNGELEQDYKNTPPILDSDGTYFLYSKLTVDTDSWLQGEIFTCSVVHEALHNHHTQKNLSRSPGK light: DVVMTQTPLSLPVSLGDQASISCRSSQSLVHSNGNTYLHWFLQKPGQSPKLLIYKVSIRFSGVPDRFSGSGSGTDFTLKISRVEAEDLGVYFCSQSTHVPPLTFGAGTKLELKRADAAPTVSIFPPSSEQLTSGGASVVCFLNNFYPKDINVKWKIDGSERQNGVLNSWTDQDSKDSTYSMSSTLTLTKDEYERHNSYTCEATHKTSTSPIVKSFNRNEC", "values": [{"measurement": "immunofluorescence signal intensity", "setting": "[1]; CHODukx negative cells", "value": "−"}, {"measurement": "immunofluorescence staining", "setting": "[1]; negative control cells", "value": "no staining"}, {"measurement": "Western Blot signal intensity", "setting": "[2]", "value": "−"}, {"measurement": "Western Blot signal intensity", "setting": "[3]", "value": "−"}, {"measurement": "median fluorescence intensity (MFI) signal", "setting": "[4]", "value": "dose related increase"}, {"measurement": "median fluorescence intensity (MFI) signal", "setting": "[5]", "value": "remained at background levels"}, {"measurement": "median fluorescence intensity (MFI) signal", "setting": "[6]", "value": "remained at background levels"}]}
